The data set has as its system MS2 coat protein. Briefly: apparent KD of MS2 coat protein; designed switch direction (-1 OFF switch, 1 ON switch): -1; higher = weaker reporter binding. In a few lines:
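The buffer was Tris-HCl pH 7.5 with KCl, MgCl2, BSA, DTT, tRNA and Tween-20. In it, SNAP-549-labelled MS2 coat protein was titrated in doubling steps from 0.7 or 1.5 nM to 3 µM over chip-bound RNA switches transcribed by stalled E. coli RNA polymerase on Illumina chips. Apparent KD is the per-design median over clusters of curve fits to normalised fluorescence.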

[1] abbreviates: input ligand: microRNA oligo, concentration not stated.
[2] abbreviates: Eterna round: R95, input ligand: microRNA oligo, concentration not stated.
The mark [3] stands for this setting: Eterna round: R95, input ligand: FMN 200 uM.
The mark [4] stands for this setting: Eterna round: R95, input ligand: none.

As to “CGCACACAUGAGGAUCACCCAUGUGAGGAUAUCAUGCUUCGUAGUAAACUACGAAGUGUGAGAAGGCACAUGUU [Omei Ex1 D9] (Eterna round: R97, puzzle: Exclusion 1)”, the “apparent KD of MS2 coat protein” value runs as follows: (input ligand: FMN 200 uM) 144 nM; (input ligand: none) 55 nM.

Take “CGCCUGUUAGGAUAUUAGUAGUAGUCAGAAUAGACUAUUACUGAGAAGGAACAUGAGGAUCACCCAUGUUGGCG [Eli x4 4.13] (Eterna round: R97, puzzle: Exclusion 4)”: the “apparent KD of MS2 coat protein” value was found to be 19.9 nM (input ligand: FMN 200 uM) and 15.5 nM (input ligand: none).

Regarding “CGCGUAGGAGGAUAUAUGGCAUACAACAUGAGGAUCACCCAUGUAGUCGCACGUUGGGAUAUAGAAGGCCUGCGAA [Eternabot (L1) Solution 87] (Eterna round: R97, puzzle: Exclusion 5)”, the “apparent KD of MS2 coat protein” value was 18.3 nM (input ligand: FMN 200 uM) and 20 nM (input ligand: none).

Consider “CGGCAAAGGAAGGAUAUGCUAGACGAUAGUCUAGCAGAAGGUCCUACAUGAGGAUCACCCAUGUGUCCUAGCCG [Mat - Exclusion 6 - Eli Mod - D9] (Eterna round: R97, puzzle: Exclusion 6)”, for which the “apparent KD of MS2 coat protein” value (input ligand: FMN 200 uM) came out at 49.6 nM and the “apparent KD of MS2 coat protein” value (input ligand: none) turned out to be 44.3 nM.

Consider “CGGGCCCAGGCAGGAUAUGUACAGCCACAAAACCCUCGUGUGAGGGACAUGAGGAUCACCCAUGUAUAGAAGGGCCAGCGCGUA [Xeditein] (Eterna round: R96, puzzle: Exclusion NG 2)”, for which the “apparent KD of MS2 coat protein” value was found to be 26.3 nM (input ligand: FMN 200 uM), 14 nM under setting [1] and 22 nM (input ligand: none).

For “CGGUACUGAGGAUAUACAUGAGGAUCACCCAUGUGUUCCAGCUAGCGUACUGGCAUUUGUAGAAGGCGGUGCUG [JL-ex3-3.22 Brourd mod] (puzzle: Exclusion 3)”, under setting [2], the “apparent KD of MS2 coat protein” value came out at 16 nM.

On to “CGGUGCUGAGGAUAUACAUGAGGAUCACCCAUGUGUGCCAGCUAGCUGACUGGCGCUUGUAGAAGGCAGUACUG [JL-ex3-2.12 Brourd mod] (puzzle: Exclusion 3)”, for which the “apparent KD of MS2 coat protein” value under setting [2] came to 11.4 nM.

For the sequence “CGGUGCUGAGGAUAUACAUGAGGAUCACCCAUGUGUUAUUGAUAGAAAACUGGCAGAUGUAGAAGGCGGUACUG [Mat - Exclusion 3 - Mod of JL D99] (puzzle: Exclusion 3)”, the “apparent KD of MS2 coat protein” value runs as follows: under setting [3], 80.5 nM; under setting [2], 25.4 nM; under setting [4], 24.9 nM.

For the sequence “CGGUGCUUCUGGAAACAUGAGGAUCACCCAUGUUGAGUUAGCGAGGAUAUCGGUAACACUUGUUAUGAGAAGGCGCGAACCAGA [Ex NG3 #35] (Eterna round: R96, puzzle: Exclusion NG 3)”, the “apparent KD of MS2 coat protein” value runs as follows: (input ligand: FMN 200 uM) 13.6 nM; under setting [1], 14.6 nM; (input ligand: none) 19.4 nM.

Regarding “CGGUGCUUGUGGAAACAUGAGGAUCACCCAUGUUGAGUUAGCGAGGAUAUCGGUAACACAUGUCACGAGAAGGCGCGAACCAGA [Ex NG3 #33] (Eterna round: R96, puzzle: Exclusion NG 3)”, the “apparent KD of MS2 coat protein” value was determined as 39.6 nM (input ligand: FMN 200 uM), 18.1 nM under setting [1] and 16.2 nM (input ligand: none).

Take “CGGUGUAACGUAGGAUAUCAGCGCAACUGACGAUGAGAAGGACGACAUGAGGAUCACCCAUGUGAUUUCUCAAUAUUAUACAUC [Prohibition 87 - Jieux - Exclusion NG 1] (Eterna round: R96, puzzle: Exclusion NG 1)”: the “apparent KD of MS2 coat protein” value is, setting by setting: (input ligand: FMN 200 uM) 511 nM; under setting [1], 58.9 nM; (input ligand: none) 74.5 nM.

For “CGGUGUAGAGGAUAUACGUGAAUAUUAUUAGAUAAUAAUUUACAUGAGGAUCACCCAUGUAGAAGGCUAUAGCG [JR_Ex2_Sub083] (Eterna round: R97, puzzle: Exclusion 2)”, the “apparent KD of MS2 coat protein” value was 24.9 nM (input ligand: FMN 200 uM) and 20.1 nM (input ligand: none).

As to “CGUAAAAGGUAGGAUAUGCUAGACGAAAGUCUAGCAGAAGGACCUACAUGAGGAUCACCCAUGUGUCCAAUACG [Mat - Exclusion 6 - Eli Mod - D22] (Eterna round: R97, puzzle: Exclusion 6)”, the “apparent KD of MS2 coat protein” value (input ligand: FMN 200 uM) was determined as 50.7 nM and the “apparent KD of MS2 coat protein” value (input ligand: none) was found to be 117 nM.

Regarding “CGUACUGAAGUCAGGAUAUUGUCUCGGAUACGAAACAAGAAGGGACAUGAGGAUCACCCAUGUAGACAGUACGA [Malc #30 mod 3] (puzzle: Brourd's mod of Exclusion 4)”, the “apparent KD of MS2 coat protein” value runs as follows: under setting [3], 19.3 nM; under setting [2], 20.5 nM; under setting [4], 24.9 nM.

On to “CGUAUGUCAGGAUAUCGUGCAUACAACGAAAGUUCUAUGUGCGAGAAGGGACAUGAGGAUCACCCAUGUCUUCG [Omei Ex4 A13] (Eterna round: R97, puzzle: Exclusion 4)”, for which the “apparent KD of MS2 coat protein” value was 42.8 nM (input ligand: FMN 200 uM) and 23.6 nM (input ligand: none).

In the case of “CGUCAAGCUUCGGCAGGCAACAUGAGGAUCACCCAUGUCUGCGUUCGUCUUAACUGAUCUAGGGAUAGAUCGUGUGU [Eternabot (L1) Solution 49] (Eterna round: R97, puzzle: Sensor, turn-off variant 1)”, the “apparent KD of MS2 coat protein” value by setting is: (input ligand: FMN 200 uM) 18.3 nM; (input ligand: none) 15.4 nM.

With “CGUCCUGAUGACAACUUACAUGAGGAUCACCCAUGUGCCUCGCAGGAUAUCCCAGCACGUCGCAAGGAGAAGGGCGACGCGCCA [Ceeninge] (Eterna round: R96, puzzle: Exclusion NG 3)”, the “apparent KD of MS2 coat protein” value runs as follows: (input ligand: FMN 200 uM) 18 nM; under setting [1], 13.7 nM; (input ligand: none) 19 nM.

As to “CGUCGAAAUGUAGGAUAUCUGCACGUUUAGUGCAGAGAAGGACAUGAGGAUCACCCAUGUAGAUCACGACGAAUUAAUUUAAUU [ENG1/5-C2] (Eterna round: R96, puzzle: Exclusion NG 1)”, the “apparent KD of MS2 coat protein” value runs as follows: (input ligand: FMN 200 uM) 374 nM; under setting [1], 47.3 nM; (input ligand: none) 65.8 nM.

Regarding “CGUCUGUAAGGAUAUGGUUGCAUCAACAUGAGGAUCACCCAUGUAACAUGGGACUAGUGAUUAGAAGGUACGAACG [EX5 #58] (Eterna round: R97, puzzle: Exclusion 5)”, the “apparent KD of MS2 coat protein” value reads like this: (input ligand: FMN 200 uM) 156 nM; (input ligand: none) 142 nM.

On to “CGUCUGUGAGGAUAUGGUAUCGUUUACAUGAGGAUCACCCAUGUUACAUGGGACUAGAGACUAGAAGGUACUGACG [EX5 #47] (Eterna round: R97, puzzle: Exclusion 5)”, for which the “apparent KD of MS2 coat protein” value is, setting by setting: (input ligand: FMN 200 uM) 628 nM; (input ligand: none) 878 nM.

On to “CGUGACUCAGGAUAUCUAUAAUAUCACAUGAGGAUCACCCAUGUCCAGCAAUAGCUGGAGGGAGAAGGGAGUCACG [Fiskers Ex 5 - 40] (puzzle: Exclusion 5)”, for which the “apparent KD of MS2 coat protein” value under setting [2] was 195 nM.

Consider “CGUGACUGAGGAUAUCUAUAUUAUCACAUGAGGAUCACCCAUGUCCAGCGAAAGCUGGAGGGAGAAGGCAGUCACG [Fiskers Ex 5 - 28] (puzzle: Exclusion 5)”, for which the “apparent KD of MS2 coat protein” value is 17.1 nM under setting [3], 49.8 nM under setting [2] and 32.4 nM under setting [4].

Turning to “CGUUCGCGUGUAGGAUAUGUGUCUGUGUCGGGCGCAGAAGGACAUGAGGAUCACCCAUGUCUGCGGGUGUGGGCGCUCUCUGCG [-29, -28 kcal A 14%] (Eterna round: R96, puzzle: Exclusion NG 1)”, the “apparent KD of MS2 coat protein” value is, setting by setting: (input ligand: FMN 200 uM) 69.6 nM; under setting [1], 18.2 nM; (input ligand: none) 26.9 nM.

As for “CGUUGAAUAGGAUAUACAUGAGGAUCACCCAUGUGAAAUUAUAGUGAGGAAAUGAAAAGUAGAAGGGUUUGACA [Mod of Mat 8 - Jieux - Exclusion 3] (Eterna round: R97, puzzle: Exclusion 3)”, the “apparent KD of MS2 coat protein” value runs as follows: (input ligand: FMN 200 uM) 27.6 nM; (input ligand: none) 30.4 nM.

With “CGUUGCAGAGGAUAUACAUGAGGAUCACCCAUGUGAAAUUAUAGUGAGGAAAUGAAAAGUAGAAGGCUGUGACA [Mod of Mat 11 - Jieux - Exclusion 3] (Eterna round: R97, puzzle: Exclusion 3)”, the “apparent KD of MS2 coat protein” value turned out to be 267 nM (input ligand: FMN 200 uM) and 47.3 nM (input ligand: none).

On to “CGUUGGAAAGGAUAUACAUGAGGAUCACCCAUGUGAAAUUAUAGUGAGGAAAUGAAAAGUAGAAGGUUCUGACA [Mod of Mat 6 - Jieux - Exclusion 3] (Eterna round: R97, puzzle: Exclusion 3)”, for which the “apparent KD of MS2 coat protein” value (input ligand: FMN 200 uM) worked out at 61.2 nM and the “apparent KD of MS2 coat protein” value (input ligand: none) turned out to be 25 nM.

For “CUAAAUCAUGUAGGAUAUGCGUGGCAAAGCUAUGCAGAAGGACAUGAGGAUCACCCAUGUCAUUCCGUCUGCGUACAGACGGGA [Mat - Exclusion NG 1 - Mod of JL - D49] (Eterna round: R96, puzzle: Exclusion NG 1)”, the “apparent KD of MS2 coat protein” value runs as follows: (input ligand: FMN 200 uM) 187 nM; under setting [1], 19.9 nM; (input ligand: none) 24.9 nM.

For “CUAAAUCAUGUAGGAUAUGCGUGGCAAAGCUAUGCAGAAGGACAUGAGGAUCACCCAUGUCAUUCCGUCUGGAGACAGACGGGA [Mat - Exclusion NG 1 - Mod of JL - D54] (Eterna round: R96, puzzle: Exclusion NG 1)”, the “apparent KD of MS2 coat protein” value by setting is: (input ligand: FMN 200 uM) 182 nM; under setting [1], 20.7 nM; (input ligand: none) 25 nM.

Regarding “CUAAAUCAUGUAGGAUAUGCGUGGCAAAGCUAUGCAGAAGGACAUGAGGAUCACCCAUGUCUUUCCGUCUGAGUACAGACGGGA [Mat - Exclusion NG 1 - Mod of JL - D46] (Eterna round: R96, puzzle: Exclusion NG 1)”, the “apparent KD of MS2 coat protein” value (input ligand: FMN 200 uM) was found to be 166 nM, the “apparent KD of MS2 coat protein” value under setting [1] amounted to 21.7 nM and the “apparent KD of MS2 coat protein” value (input ligand: none) worked out at 26.6 nM.

Consider “CUAAUUCAAGGAUAUACAUGAGGAUCACCCAUGUGAGGGAGUGACAAGUUGUCGGGAUGUAGAAGGUGACCUAG [Eternabot (L2) Solution 36] (Eterna round: R97, puzzle: Exclusion 3)”, for which the “apparent KD of MS2 coat protein” value amounted to 417 nM (input ligand: FMN 200 uM) and 411 nM (input ligand: none).
